Results from patent publication US20180086841A1.
Blank lines part the entries; values can stand above or below the substance they belong to.

Columns and labels:
[1] = target: D43A; test: flow cytometry on CHO-K1 transfectants, left sub-column
[2] = target: E9A; test: as above
[3] = target: F28A; test: as above
[4] = target: G16A; test: as above
[5] = target: G89A; test: as above
[6] = target: H36A; test: as above
[7] = target: H60A; test: as above
[8] = target: I46A; test: as above
[9] = target: K31A; test: as above
[10] = target: K38A; test: as above
[11] = target: N88A; test: as above
[12] = target: P44A; test: as above
[13] = target: P8A; test: as above
[14] = target: Q41A; test: as above
[15] = target: Q91A; test: as above
[16] = target: R10A; test: as above
[17] = target: R37A; test: as above
[18] = target: R87A; test: as above
[19] = target: R93A; test: as above
[20] = target: S63A; test: as above
[21] = target: V30A; test: as above
[22] = target: V49A; test: as above
[23] = target: W13A; test: as above
[24] = target: W90A; test: as above
[25] = target: D43A; test: flow cytometry on CHO-K1 transfectants, right sub-column
[26] = target: E9A; test: as above
[27] = target: F28A; test: as above
[28] = target: G16A; test: as above
[29] = target: G89A; test: as above
[30] = target: H36A; test: as above
[31] = target: H60A; test: as above
[32] = target: I46A; test: as above
[33] = target: K31A; test: as above
[34] = target: K38A; test: as above
[35] = target: N88A; test: as above
[36] = target: P44A; test: as above
[37] = target: P8A; test: as above
[38] = target: Q41A; test: as above
[39] = target: Q91A; test: as above
[40] = target: R10A; test: as above
[41] = target: R37A; test: as above
[42] = target: R87A; test: as above
[43] = target: R93A; test: as above
[44] = target: S63A; test: as above
[45] = target: V30A; test: as above
[46] = target: V49A; test: as above
[47] = target: W13A; test: as above
[48] = target: W90A; test: as above
[49] = target: D32A; test: flow cytometry on CHO-K1 transfectants, left sub-column, cell hatched (loss of binding)
[50] = target: K17A; test: as above
[51] = target: Q15A; test: as above
[52] = target: D32A; test: flow cytometry on CHO-K1 transfectants, right sub-column, cell hatched (loss of binding)
[53] = target: K17A; test: as above
[54] = target: Q15A; test: as above
[55] = target: D32A; test: flow cytometry on CHO-K1 transfectants, left sub-column
[56] = target: K17A; test: as above
[57] = target: Q15A; test: as above
[58] = target: D32A; test: flow cytometry on CHO-K1 transfectants, right sub-column
[59] = target: K17A; test: as above
[60] = target: Q15A; test: as above
[61] = target: K38A; test: flow cytometry on CHO-K1 transfectants, left sub-column, cell hatched (loss of binding)
[62] = target: R37A; test: as above
[63] = target: K38A; test: flow cytometry on CHO-K1 transfectants, right sub-column, cell hatched (loss of binding)
[64] = target: R37A; test: as above
[65] = target: human CD27 (human) (UniProt P26842); test: flow cytometry on CHO-K1 cells transfected with CD27 (empty vector: + 5.32)
[66] = target: human CD27 (human) (UniProt P26842); test: flow cytometry on CHO-K1 cells transfected with CD27 (empty vector: GM FITC 212)
[67] = target: human CD27 (A59T) (human) (UniProt P26842); test: flow cytometry on CHO-K1 cells transfected with CD27 A59T (empty vector: + 5.32)
[68] = target: human CD27 (A59T) (human) (UniProt P26842); test: flow cytometry on CHO-K1 cells transfected with CD27 A59T (empty vector: GM FITC 212)

K38A, sequence (receptor chain, as listed by the source K38A K38A limits assumed): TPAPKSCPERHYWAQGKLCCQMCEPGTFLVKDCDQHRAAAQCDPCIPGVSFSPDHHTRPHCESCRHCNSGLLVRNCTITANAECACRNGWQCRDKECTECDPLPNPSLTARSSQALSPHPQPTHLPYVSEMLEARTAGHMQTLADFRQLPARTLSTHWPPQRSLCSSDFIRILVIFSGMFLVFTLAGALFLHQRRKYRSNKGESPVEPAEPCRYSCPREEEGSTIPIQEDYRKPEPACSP
S63A, sequence (receptor chain, as listed by the source S63A S63A limits assumed): as the sequence (receptor chain, as listed by the source K38A K38A limits assumed) above, with A38K, S63A counted along it
Q15A, sequence (receptor chain, as listed by the source Q15A Q15A limits assumed): as the sequence (receptor chain, as listed by the source K38A K38A limits assumed) above, with Q15A, A38K counted along it
P8A, sequence (receptor chain, as listed by the source limits assumed): as the sequence (receptor chain, as listed by the source K38A K38A limits assumed) above, with P8A, A38K counted along it
D43A, sequence (receptor chain, as listed by the source D43A D43A limits assumed): as the sequence (receptor chain, as listed by the source K38A K38A limits assumed) above, with A38K, D43A counted along it
H36A, sequence (receptor chain, as listed by the source H36A H36A limits assumed): as the sequence (receptor chain, as listed by the source K38A K38A limits assumed) above, with H36A, A38K counted along it
R37A, sequence (receptor chain, as listed by the source R37A R37A limits assumed): as the sequence (receptor chain, as listed by the source K38A K38A limits assumed) above, with R37A, A38K counted along it
R93A, sequence (receptor chain, as listed by the source R93A R93A limits assumed): as the sequence (receptor chain, as listed by the source K38A K38A limits assumed) above, with A38K, R93A counted along it
N88A, sequence (receptor chain, as listed by the source N88A N88A limits assumed): as the sequence (receptor chain, as listed by the source K38A K38A limits assumed) above, with A38K, N88A counted along it
D32A, sequence (receptor chain, as listed by the source D32A D32A limits assumed): as the sequence (receptor chain, as listed by the source K38A K38A limits assumed) above, with D32A, A38K counted along it
V30A, sequence (receptor chain, as listed by the source V30A V30A limits assumed): as the sequence (receptor chain, as listed by the source K38A K38A limits assumed) above, with V30A, A38K counted along it
R87A, sequence (receptor chain, as listed by the source R87A R87A limits assumed): as the sequence (receptor chain, as listed by the source K38A K38A limits assumed) above, with A38K, R87A counted along it
G16A, sequence (receptor chain, as listed by the source G16A G16A limits assumed): as the sequence (receptor chain, as listed by the source K38A K38A limits assumed) above, with G16A, A38K counted along it
W13A, sequence (receptor chain, as listed by the source W13A W13A limits assumed): as the sequence (receptor chain, as listed by the source K38A K38A limits assumed) above, with W13A, A38K counted along it
E9A, sequence (receptor chain, as listed by the source limits assumed): as the sequence (receptor chain, as listed by the source K38A K38A limits assumed) above, with E9A, A38K counted along it
P44A, sequence (receptor chain, as listed by the source P44A P44A limits assumed): as the sequence (receptor chain, as listed by the source K38A K38A limits assumed) above, with A38K, P44A counted along it
F28A, sequence (receptor chain, as listed by the source F28A F28A limits assumed): as the sequence (receptor chain, as listed by the source K38A K38A limits assumed) above, with F28A, A38K counted along it
I46A, sequence (receptor chain, as listed by the source I46A I46A limits assumed): as the sequence (receptor chain, as listed by the source K38A K38A limits assumed) above, with A38K, I46A counted along it
Fc-mCD70, sequence (O55237 45-195): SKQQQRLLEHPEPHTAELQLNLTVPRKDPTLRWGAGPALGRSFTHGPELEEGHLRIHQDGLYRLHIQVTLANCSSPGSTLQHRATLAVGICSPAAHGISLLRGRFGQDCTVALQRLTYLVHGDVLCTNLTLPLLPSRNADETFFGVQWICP
H60A, sequence (receptor chain, as listed by the source H60A H60A limits assumed): as the sequence (receptor chain, as listed by the source K38A K38A limits assumed) above, with A38K, H60A counted along it
K17A, sequence (receptor chain, as listed by the source K17A K17A limits assumed): as the sequence (receptor chain, as listed by the source K38A K38A limits assumed) above, with K17A, A38K counted along it
W90A, sequence (receptor chain, as listed by the source W90A W90A limits assumed): as the sequence (receptor chain, as listed by the source K38A K38A limits assumed) above, with A38K, W90A counted along it
Q41A, sequence (receptor chain, as listed by the source Q41A Q41A limits assumed): as the sequence (receptor chain, as listed by the source K38A K38A limits assumed) above, with A38K, Q41A counted along it
R10A, sequence (receptor chain, as listed by the source R10A R10A limits assumed): as the sequence (receptor chain, as listed by the source K38A K38A limits assumed) above, with R10A, A38K counted along it
G89A, sequence (receptor chain, as listed by the source G89A G89A limits assumed): as the sequence (receptor chain, as listed by the source K38A K38A limits assumed) above, with A38K, G89A counted along it
K31A, sequence (receptor chain, as listed by the source K31A K31A limits assumed): as the sequence (receptor chain, as listed by the source K38A K38A limits assumed) above, with K31A, A38K counted along it
V49A, sequence (receptor chain, as listed by the source V49A V49A limits assumed): as the sequence (receptor chain, as listed by the source K38A K38A limits assumed) above, with A38K, V49A counted along it
Q91A, sequence (receptor chain, as listed by the source Q91A Q91A limits assumed): as the sequence (receptor chain, as listed by the source K38A K38A limits assumed) above, with A38K, Q91A counted along it

binding, WT hCD27 = 100 (GM FITC) [1]: 195% | binding, WT hCD27 = 100 (GM FITC) [2]: 98.2% | binding, WT hCD27 = 100 (GM FITC) [3]: 113% | binding, WT hCD27 = 100 (GM FITC) [4]: 90.8% | binding, WT hCD27 = 100 (GM FITC) [5]: 100% | binding, WT hCD27 = 100 (GM FITC) [6]: 111% | binding, WT hCD27 = 100 (GM FITC) [7]: 167% | binding, WT hCD27 = 100 (GM FITC) [8]: 129% | binding, WT hCD27 = 100 (GM FITC) [9]: 194% | binding, WT hCD27 = 100 (GM FITC) [10]: 104% | binding, WT hCD27 = 100 (GM FITC) [11]: 154% | binding, WT hCD27 = 100 (GM FITC) [12]: 146% | binding, WT hCD27 = 100 (GM FITC) [13]: 84.5% | binding, WT hCD27 = 100 (GM FITC) [14]: 106% | binding, WT hCD27 = 100 (GM FITC) [15]: 146% | binding, WT hCD27 = 100 (GM FITC) [16]: 107% | binding, WT hCD27 = 100 (GM FITC) [17]: 115% | binding, WT hCD27 = 100 (GM FITC) [18]: 143% | binding, WT hCD27 = 100 (GM FITC) [19]: 120% | binding, WT hCD27 = 100 (GM FITC) [20]: 158% | binding, WT hCD27 = 100 (GM FITC) [21]: 161% | binding, WT hCD27 = 100 (GM FITC) [22]: 144% | binding, WT hCD27 = 100 (GM FITC) [23]: 89.1% | binding, WT hCD27 = 100 (GM FITC) [24]: 123% | binding, WT hCD27 = 100 (GM FITC) [25]: 93.4% | binding, WT hCD27 = 100 (GM FITC) [26]: 122% | binding, WT hCD27 = 100 (GM FITC) [27]: 60% | binding, WT hCD27 = 100 (GM FITC) [28]: 97.3% | binding, WT hCD27 = 100 (GM FITC) [29]: 81.8% | binding, WT hCD27 = 100 (GM FITC) [30]: 85.2% | binding, WT hCD27 = 100 (GM FITC) [31]: 120% | binding, WT hCD27 = 100 (GM FITC) [32]: 82.7% | binding, WT hCD27 = 100 (GM FITC) [33]: 138% | binding, WT hCD27 = 100 (GM FITC) [34]: 97.7% | binding, WT hCD27 = 100 (GM FITC) [35]: 116% | binding, WT hCD27 = 100 (GM FITC) [36]: 90.5% | binding, WT hCD27 = 100 (GM FITC) [37]: 79.1% | binding, WT hCD27 = 100 (GM FITC) [38]: 76.1% | binding, WT hCD27 = 100 (GM FITC) [39]: 120% | binding, WT hCD27 = 100 (GM FITC) [40]: 113% | binding, WT hCD27 = 100 (GM FITC) [41]: 87% | binding, WT hCD27 = 100 (GM FITC) [42]: 108% | binding, WT hCD27 = 100 (GM FITC) [43]: 91.1% | binding, WT hCD27 = 100 (GM FITC) [44]: 163% | binding, WT hCD27 = 100 (GM FITC) [45]: 102% | binding, WT hCD27 = 100 (GM FITC) [46]: 97% | binding, WT hCD27 = 100 (GM FITC) [47]: 93.4% | binding, WT hCD27 = 100 (GM FITC) [48]: 96.4% | binding, WT hCD27 = 100 (GM FITC) [49]: 43.7% | binding, WT hCD27 = 100 (GM FITC) [50]: 32.4% | binding, WT hCD27 = 100 (GM FITC) [51]: 32% | binding, WT hCD27 = 100 (GM FITC) [52]: 8.7% | binding, WT hCD27 = 100 (GM FITC) [53]: 6.8% | binding, WT hCD27 = 100 (GM FITC) [54]: 7.6%
Substance: 1A4 (mouse IgG1) (antibody)

binding, WT hCD27 = 100 (GM FITC) [55]: 118% | binding, WT hCD27 = 100 (GM FITC) [1]: 201% | binding, WT hCD27 = 100 (GM FITC) [2]: 96.6% | binding, WT hCD27 = 100 (GM FITC) [3]: 115% | binding, WT hCD27 = 100 (GM FITC) [4]: 94.7% | binding, WT hCD27 = 100 (GM FITC) [5]: 116% | binding, WT hCD27 = 100 (GM FITC) [6]: 88.5% | binding, WT hCD27 = 100 (GM FITC) [7]: 185% | binding, WT hCD27 = 100 (GM FITC) [8]: 137% | binding, WT hCD27 = 100 (GM FITC) [56]: 98% | binding, WT hCD27 = 100 (GM FITC) [9]: 207% | binding, WT hCD27 = 100 (GM FITC) [11]: 153% | binding, WT hCD27 = 100 (GM FITC) [12]: 159% | binding, WT hCD27 = 100 (GM FITC) [13]: 68.5% | binding, WT hCD27 = 100 (GM FITC) [57]: 107% | binding, WT hCD27 = 100 (GM FITC) [14]: 113% | binding, WT hCD27 = 100 (GM FITC) [15]: 149% | binding, WT hCD27 = 100 (GM FITC) [16]: 104% | binding, WT hCD27 = 100 (GM FITC) [18]: 153% | binding, WT hCD27 = 100 (GM FITC) [19]: 122% | binding, WT hCD27 = 100 (GM FITC) [20]: 153% | binding, WT hCD27 = 100 (GM FITC) [21]: 166% | binding, WT hCD27 = 100 (GM FITC) [22]: 151% | binding, WT hCD27 = 100 (GM FITC) [23]: 90.7% | binding, WT hCD27 = 100 (GM FITC) [24]: 130% | binding, WT hCD27 = 100 (GM FITC) [58]: 66.3% | binding, WT hCD27 = 100 (GM FITC) [25]: 92.5% | binding, WT hCD27 = 100 (GM FITC) [26]: 109% | binding, WT hCD27 = 100 (GM FITC) [27]: 58.2% | binding, WT hCD27 = 100 (GM FITC) [28]: 102% | binding, WT hCD27 = 100 (GM FITC) [29]: 77.5% | binding, WT hCD27 = 100 (GM FITC) [30]: 66.5% | binding, WT hCD27 = 100 (GM FITC) [31]: 126% | binding, WT hCD27 = 100 (GM FITC) [32]: 82.7% | binding, WT hCD27 = 100 (GM FITC) [59]: 106% | binding, WT hCD27 = 100 (GM FITC) [33]: 133% | binding, WT hCD27 = 100 (GM FITC) [35]: 104% | binding, WT hCD27 = 100 (GM FITC) [36]: 91.7% | binding, WT hCD27 = 100 (GM FITC) [37]: 62.2% | binding, WT hCD27 = 100 (GM FITC) [60]: 118% | binding, WT hCD27 = 100 (GM FITC) [38]: 71.3% | binding, WT hCD27 = 100 (GM FITC) [39]: 111% | binding, WT hCD27 = 100 (GM FITC) [40]: 99% | binding, WT hCD27 = 100 (GM FITC) [42]: 98.8% | binding, WT hCD27 = 100 (GM FITC) [43]: 91.1% | binding, WT hCD27 = 100 (GM FITC) [44]: 149% | binding, WT hCD27 = 100 (GM FITC) [45]: 95.6% | binding, WT hCD27 = 100 (GM FITC) [46]: 92.1% | binding, WT hCD27 = 100 (GM FITC) [47]: 86.5% | binding, WT hCD27 = 100 (GM FITC) [48]: 85.7% | binding, WT hCD27 = 100 (GM FITC) [61]: 44.7% | binding, WT hCD27 = 100 (GM FITC) [62]: 35% | binding, WT hCD27 = 100 (GM FITC) [63]: 31.6% | binding, WT hCD27 = 100 (GM FITC) [64]: 6.2%
Substance: 9F4 (mouse IgG2a) (antibody)

cells in the + gate [65]: 58.9 | GM FITC [66]: 1280 | cells in the + gate [67]: 52.5 | GM FITC [68]: 1060
Substance: Fc-mCD70 (from UniProt O55237 45-195) (Fc fusion)
